The text below walks through data of PMC9700739.

In test [1] the target is AMS2b E2E1-I53-50A (hepatitis C virus, strain AMS2b). Nature of the test: non-reducing SDS-PAGE; purified protein on a non-reducing gel; one band larger than 250 kDa, disulfide-bonded trimer.
Test [2] has as its target AMS0232 E2E1-I53-50A (hepatitis C virus, isolate AMS0232 (genotype 1a)). Described as above.
Test [3] shares this target. Nature of the test: SEC; Strep-Tactin-purified E2E1-I53-50A alone on Superdex 200 Increase 10/300 GL or Superose 6 Increase 10/300 GL; TBS/5% glycerol; elutes as a trimer.
In test [4] the target is H77 E2E1-I53-50A (hepatitis C virus, strain H77). Briefly: non-reducing SDS-PAGE; purified protein on a non-reducing gel; one band larger than 250 kDa, disulfide-bonded trimer.
Test [5] addresses UKNP2.2.1 E2E1-I53-50A (hepatitis C virus, strain UKNP2.2.1 / UKNP2.1.1). The description is as above.
Test [6] deals with UKNP4.1.1 E2E1-I53-50A (hepatitis C virus, strain UKNP4.1.1). The description is as above.
The target in test [7] is UKNP5.2.1 E2E1-I53-50A (hepatitis C virus, strain UKNP5.2.1). The description is as above.
For test [8], the target named is UKNP6.1.2 E2E1-I53-50A (hepatitis C virus, strain UKNP6.1.2). The description is as above.

In test [1], AMS2b E2E1-I53-50A (complex) registered a stoichiometry N of 3.

For the substance AMS0232 E2E1-I53-50A (complex), the stoichiometry N in test [2] and in test [3] was 3 each time.

The substance H77 E2E1-I53-50A (complex) showed a stoichiometry N in test [4] of 3.

The substance UKNP2.2.1 E2E1-I53-50A came in with a stoichiometry N in test [5] of 3.

In the case of UKNP4.1.1 E2E1-I53-50A (complex), in test [6], the stoichiometry N amounted to 3.

In the case of UKNP5.2.1 E2E1-I53-50A (complex), the stoichiometry N in test [7] was determined as 3.

Take UKNP6.1.2 E2E1-I53-50A (complex): the stoichiometry N in test [8] is 3.
